Experimental data as given in US20240150447A1.
Blank lines part the entries; values can stand above or below the substance they belong to.

Legend:
[1] = target: human FcRn and human B2M (beta-2-microglobulin) expressed on MDCK II cells (human) (UniProt P55899); experiment: cell-based or functional assay
[2] = target: human FcRn protein (human) (UniProt P55899); experiment: SPR, Ab on Protein L chip, hFcRn in flow, pH 6.0
[3] = target: human FcRn protein (human) (UniProt P55899); experiment: SPR, Ab on Protein L chip, hFcRn in flow, pH 7.4

Transcytosis Normalized to IAHA at pH 6.0 (ratio to IAHA) [1]: 190
Substance: anti-O4 hIgG1 M252Y/T256A/V308P/N434W (antibody)

Transcytosis Normalized to IAHA at pH 6.0 (ratio to IAHA) [1]: 193
Substance: anti-O4 hIgG1 M252Y/T256A/V308P/N434Y (antibody)

Transcytosis Normalized to IAHA at pH 6.0 (ratio to IAHA) [1]: 153
Substance: anti-O4 hIgG1 M252Y/T256D/V308P/N434W (antibody)

Transcytosis Normalized to IAHA at pH 6.0 (ratio to IAHA) [1]: 182
Substance: anti-O4 hIgG1 M252Y/T256E/V308P/N434F (antibody)

Transcytosis Normalized to IAHA at pH 6.0 (ratio to IAHA) [1]: 155
Substance: anti-O4 hIgG1 M252Y/T256E/V308P/N434H (antibody)

Transcytosis Normalized to IAHA at pH 6.0 (ratio to IAHA) [1]: 154
Substance: anti-O4 hIgG1 M252Y/T256E/V308P/N434W (antibody)

Transcytosis Normalized to IAHA at pH 6.0 (ratio to IAHA) [1]: 124
Substance: anti-O4 hIgG1 M252Y/T256E/V308P/N434Y (antibody)

Transcytosis Normalized to IAHA at pH 6.0 (ratio to IAHA) [1]: 60.4
Substance: anti-O4 hIgG1 M252Y/T256F/V308P/N434F (antibody)

Transcytosis Normalized to IAHA at pH 6.0 (ratio to IAHA) [1]: 193
Substance: anti-O4 hIgG1 M252Y/T256F/V308P/N434Y (antibody)

Transcytosis Normalized to IAHA at pH 6.0 (ratio to IAHA) [1]: 130
Substance: anti-O4 hIgG1 M252Y/T256G/V308P/N434Y (antibody)

Transcytosis Normalized to IAHA at pH 6.0 (ratio to IAHA) [1]: 192
Substance: anti-O4 hIgG1 M252Y/T256H/V308P/N434F (antibody)

Transcytosis Normalized to IAHA at pH 6.0 (ratio to IAHA) [1]: 126
Substance: anti-O4 hIgG1 M252Y/T256I/V308P/N434Y (antibody)

Transcytosis Normalized to IAHA at pH 6.0 (ratio to IAHA) [1]: 217
Substance: anti-O4 hIgG1 M252Y/T256L/V308P/N434W (antibody)

Transcytosis Normalized to IAHA at pH 6.0 (ratio to IAHA) [1]: 303
Substance: anti-O4 hIgG1 M252Y/T256L/V308P/N434Y (antibody)

Transcytosis Normalized to IAHA at pH 6.0 (ratio to IAHA) [1]: 174
Substance: anti-O4 hIgG1 M252Y/T256N/V308P/N434Y (antibody)

Transcytosis Normalized to IAHA at pH 6.0 (ratio to IAHA) [1]: 208
Substance: anti-O4 hIgG1 M252Y/T256P/V308P/N434W (antibody)

Transcytosis Normalized to IAHA at pH 6.0 (ratio to IAHA) [1]: 132
Substance: anti-O4 hIgG1 M252Y/T256P/V308P/N434Y (antibody)

Transcytosis Normalized to IAHA at pH 6.0 (ratio to IAHA) [1]: 156
Substance: anti-O4 hIgG1 M252Y/T256Q/V308P/N434W (antibody)

Transcytosis Normalized to IAHA at pH 6.0 (ratio to IAHA) [1]: 286
Substance: anti-O4 hIgG1 M252Y/T256Q/V308P/N434Y (antibody)

Transcytosis Normalized to IAHA at pH 6.0 (ratio to IAHA) [1]: 162
Substance: anti-O4 hIgG1 M252Y/T256R/V308P/N434W (antibody)

Transcytosis Normalized to IAHA at pH 6.0 (ratio to IAHA) [1]: 655
Substance: anti-O4 hIgG1 M252Y/T256R/V308P/N434Y (antibody)

Transcytosis Normalized to IAHA at pH 6.0 (ratio to IAHA) [1]: 159
Substance: anti-O4 hIgG1 M252Y/T256S/V308P/N434W (antibody)

Transcytosis Normalized to IAHA at pH 6.0 (ratio to IAHA) [1]: 156
Substance: anti-O4 hIgG1 M252Y/T256S/V308P/N434Y (antibody)

Transcytosis Normalized to IAHA at pH 6.0 (ratio to IAHA) [1]: 98.9
Substance: anti-O4 hIgG1 M252Y/T256V/V308P/N434F (antibody)

Transcytosis Normalized to IAHA at pH 6.0 (ratio to IAHA) [1]: 209
Substance: anti-O4 hIgG1 M252Y/T256V/V308P/N434W (antibody)

Transcytosis Normalized to IAHA at pH 6.0 (ratio to IAHA) [1]: 183
Substance: anti-O4 hIgG1 M252Y/T256V/V308P/N434Y (antibody)

Transcytosis Normalized to IAHA at pH 6.0 (ratio to IAHA) [1]: 147
Substance: anti-O4 hIgG1 M252Y/T256W/V308P/N434W (antibody)

Transcytosis Normalized to IAHA at pH 6.0 (ratio to IAHA) [1]: 588
Substance: anti-O4 hIgG1 M252Y/T256W/V308P/N434Y (antibody)

Transcytosis Normalized to IAHA at pH 6.0 (ratio to IAHA) [1]: 8.35
Substance: anti-O4 hIgG1 M252Y/T256Y/V308P/N434Y (antibody)

Transcytosis Normalized to IAHA at pH 6.0 (ratio to IAHA) [1]: 281
Substance: anti-O4 hIgG1 M252Y/V308P (antibody)

Transcytosis Normalized to IAHA at pH 6.0 (ratio to IAHA) [1]: 122
Substance: anti-O4 hIgG1 WT (wild type Fc) (antibody)

Kd [2]: 0.109 nM
koff [2]: 0.000201 s⁻¹
kon [2]: 1.84e+06 M⁻¹ s⁻¹
Kd [3]: 1030 nM
koff [3]: 1.03 s⁻¹
kon [3]: 1e+06 M⁻¹ s⁻¹
Substance: hIgG1 M252Y/N286E/V308P/M428I/N434Y, O4 VH with Ab6 light chain (antibody)

Kd [2]: 5.48 nM
koff [2]: 0.00756 s⁻¹
kon [2]: 1.38e+06 M⁻¹ s⁻¹
Kd [3]: 25700 nM
koff [3]: 1.14 s⁻¹
kon [3]: 44300 M⁻¹ s⁻¹
Substance: hIgG1 M252Y/N434Y/Y436V, O4 VH with Ab6 light chain (antibody)

Kd [2]: 21.5 nM
koff [2]: 0.0139 s⁻¹
kon [2]: 648000 M⁻¹ s⁻¹
Kd [3]: 975 nM
koff [3]: 1.96 s⁻¹
kon [3]: 2.01e+06 M⁻¹ s⁻¹
Substance: hIgG1 M252Y/S254T/T256E/V308P, O4 VH with Ab6 light chain (antibody)

Kd [2]: 0.471 nM
koff [2]: 0.000795 s⁻¹
kon [2]: 1.69e+06 M⁻¹ s⁻¹
Kd [3]: 122 nM
koff [3]: 0.00101 s⁻¹
kon [3]: 8320 M⁻¹ s⁻¹
Substance: hIgG1 M252Y/S254T/T256E/V308P/N434W, O4 VH with Ab6 light chain (antibody)

Kd [2]: 31.7 nM
koff [2]: 0.0177 s⁻¹
kon [2]: 557000 M⁻¹ s⁻¹
Kd [3]: 76700 nM
koff [3]: 1.13 s⁻¹
kon [3]: 14700 M⁻¹ s⁻¹
Substance: hIgG1 M252Y/S254T/V308P, O4 VH with Ab6 light chain (antibody)

Kd [2]: 1.31 nM
koff [2]: 0.00143 s⁻¹
Kd [3]: 239 nM
Substance: hIgG1 M252Y/T256K/V308P/N434W, O4 VH with Ab6 light chain (antibody)

Kd [2]: 37.4 nM
koff [2]: 0.0279 s⁻¹
kon [2]: 745000 M⁻¹ s⁻¹
Kd [3]: 51.8 nM
koff [3]: 0.00221 s⁻¹
kon [3]: 42600 M⁻¹ s⁻¹
Substance: hIgG1 M252Y/V308P, O4 VH with Ab6 light chain (antibody)
